Experimental data published in article PMC7722734, “Reverse C-glycosidase reaction provides C-nucleotide building blocks of xenobiotic nucleic acids” (Nature Communications, 2020).

T1: Ribokinase (RbsK) (Escherichia coli, UniProt P0A9J6)
T1 construct: full length, N-terminal His6 tag (pET15b), expressed in E. coli BL21(DE3) pLys; 32,290 Da
T1 sequence (P0A9J6 1-309): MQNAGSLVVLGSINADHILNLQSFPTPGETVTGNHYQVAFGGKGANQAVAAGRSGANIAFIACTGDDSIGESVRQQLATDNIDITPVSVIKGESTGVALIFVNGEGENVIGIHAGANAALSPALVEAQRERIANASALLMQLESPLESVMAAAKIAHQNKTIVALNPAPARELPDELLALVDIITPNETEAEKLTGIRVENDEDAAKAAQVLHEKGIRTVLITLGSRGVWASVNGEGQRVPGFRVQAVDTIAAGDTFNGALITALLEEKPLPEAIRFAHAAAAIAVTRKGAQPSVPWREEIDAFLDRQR

B1: YeiN (ΨMP C-glycosidase; β-pseudouridine 5′-phosphate glycosidase) (Escherichia coli K-12) (protein)
chain: MSELKISPELLQISPEVQDALKNKKPVVALESTIISHGMPFPQNAQTAIEVEETIRKQGAVPATIAIIGGVMKVGLSKEEIELLGREGHNVTKVSRRDLPFVVAAGKNGATTVASTMIIAALAGIKVFATGGIGGVHRGAEHTFDISADLQELANTNVTVVCAGAKSILDLGLTTEYLETFGVPLIGYQTKALPAFFCRTSPFDVSIRLDSASEIARAMVVKWQSGLNGGLVVANPIPEQFAMPEHTINAAIDQAVAEAEAQGVIGKESTPFLLARVAELTGGDSLKSNIQLVFNNAILASEIAKEYQRLAG

Columns and labels:
Ribokinase (RbsK) = target: T1, Ribokinase (RbsK); assay: phosphorylation, TLC; format: biochemical; settings: 2 mM ATP with PEP and pyruvate kinase, 1 mM MgCl2, 10 mM HEPES pH 7.0, 37 °C
purified protein [1] = substrate: O=c1[nH]ccc(=S)[nH]1; assay: purified protein; settings: 5 mM D-Rib5P, 2 mM MnCl2, 50 mM HEPES pH 7.0, 37 °C, reverse (synthesis) direction
purified protein [2] = substrate: Cn1c(=O)cc[nH]c1=O; assay: purified protein; settings: 5 mM D-Rib5P, 2 mM MnCl2, 50 mM HEPES pH 7.0, 37 °C, reverse (synthesis) direction
purified protein [3] = substrate: O=c1cc[nH]c(=S)[nH]1; assay: purified protein; settings: 5 mM D-Rib5P, 2 mM MnCl2, 50 mM HEPES pH 7.0, 37 °C, reverse (synthesis) direction
purified protein [4] = substrate: Nc1cc(=O)[nH]c(=O)[nH]1; assay: purified protein; settings: 5 mM D-Rib5P, 2 mM MnCl2, 50 mM HEPES pH 7.0, 37 °C, reverse (synthesis) direction

Molecule	phosphorylation, TLC (Ribokinase (RbsK))	Km (purified protein [1]) [µM]	kcat (purified protein [1]) [s⁻¹]	Km (purified protein [2]) [µM]	kcat (purified protein [2]) [s⁻¹]	Km (purified protein [3]) [µM]	kcat (purified protein [3]) [s⁻¹]	Km (purified protein [4]) [µM]	kcat (purified protein [4]) [s⁻¹]
OC[C@H]1OC(O)C[C@@H]1O (stereo partly drawn) [D-dRib]	D-Rib, D-dRib, D-Xyl, D-Ara,2F-D-Rib, D-Glc were accepted								
B1		1980 ± 300	0.01 ± 0.01	1250 ± 330	0.46 ± 0.04	7400 ± 2200	0.43 ± 0.10	3230 ± 520	0.01 ± 0.01
